B1: G88P3: 1395-bp derivative of the G88P2 promoter, SEQ ID NO: 60 (nucleic acid, listed as Homo sapiens)
DNA: TCTAGATGTACCACTGACATCTGCTTTAAATCTTTTGCCCATTTCATTTTTACCCTCTAACCATTTCATTACTAAAACACAAAACAAACTCCGGAAAGGAGTTTGTTGATGAGAAAACACTGAAAGTACGATTTAAATTGAGGAATGGAGATTTTCTGTGGATAATTGTCTATGTTCCACTTTACCAAAGAAAAATGAATTTCAAGTAGTGCATAAAGTAATTCTCGTTAAAAAATGTGGGAATAAAGAGATCAGTCCTGGGTACTGGGAATATATTTATCTCACAGAAAAATCTTGCCCACAAAATGCATCAGACTGAGATGAAATACTCTAGGGTATATTAAATTTTATTCTAATATTGAAGGGAGGGAAAAAAAGGACGGAAAGAAAAATGAAACAGGATGAAAAATAAGGTGATTGGGAGAGAGAAAAGACAGAGAAACTTGTTAACGACAGGACTTTCTGAGCAAGATATTTTTCTTCCTTTTACAAGTTGGAAGCTATTGAATAATTCATGCCAAGCGTGGAAAGGCTGTCTTTTCCCTGGATGATGTATAACTAAGCAGGAGAGAGCTTCGAGTGGGTTCACCACATCAGCCACCACTCCTGCTTCTGAGCACAGGGTGCTCTCCTCTTGAGCTCAGCTTCTGCTTTTGCAGCCAAGCATTCTTGCTGCTGCTGCCTGCCTGCCCACCCGCCTGGGCTTGCAGCCCGCCACTTTACTTTCTCCAGCCCTGATACCAGCTGAGAAGTCTCCCTGCAGCTGCTAGTTCCTGCCCAGGACCATGTGTGTGGATGCTGCTTGGGAGAAGCGGGCACTTGCTCCTGGCACTGATCCCAGCTGAGTTTCTCCTGTTGATTTCTGGACCACTGATGCTGTTGCTGAGGAGGTATTTCCCGGCATCCCTCCCCCTGAGACACCGGCTAAGGACCAGCCTAAACGCAAGGTAACCTTCACCTCTTTCCCATGGGATTTTCCCCAGCTGGGATATCTCTGCTTTCTCCTGGAACTAGGTCCTCCAGCTGGCAACATATCTCTCTCTCTCTCTCTCTCTCTCTCTCTCTCTCTCTGTGTGTGTGTGTGTGTGTTGGGGGAGAAGAGGAGACTGTTTTAGGTATTGCTCTGTCCTAGGGCTTCCCCGATACCTGCTGAATCCAATGCAAAGTGGCCTTTCCCCTGGCTCTGGAGACATTTCCGAGGCAGGCACCTGTCATTTGCCACCCCCGTCCTCCTCCTCGAGCTCCCTTTCTCCCCCTCCCCCAGCCCATTATTCTGCTTCAGCCTTTTGTGTCAGTGGCAGAGGGCTGAAGGGATGTCTTTGCCCTTCTGGCAGGCAGGACAGTGTCAGGATGGACCGCGCTGCCAGAAGCCGACGCTAGCGAGGGAGGTGTGAA
B2: G88P7: 896-bp derivative of the G88P2 promoter, SEQ ID NO: 61 (nucleic acid, listed as Homo sapiens)
DNA: ATGCCAAGCGTGGAAAGGCTGTCTTTTCCCTGGATGATGTATAACTAAGCAGGAGAGAGCTTCGAGTGGGTTCACCACATCAGCCACCACTCCTGCTTCTGAGCACAGGGTGCTCTCCTCTTGAGCTCAGCTTCTGCTTTTGCAGCCAAGCATTCTTGCTGCTGCTGCCTGCCTGCCCACCCGCCTGGGCTTGCAGCCCGCCACTTTACTTTCTCCAGCCCTGATACCAGCTGAGAAGTCTCCCTGCAGCTGCTAGTTCCTGCCCAGGACCATGTGTGTGGATGCTGCTTGGGAGAAGCGGGCACTTGCTCCTGGCACTGATCCCAGCTGAGTTTCTCCTGTTGATTTCTGGACCACTGATGCTGTTGCTGAGGAGGTATTTCCCGGCATCCCTCCCCCTGAGACACCGGCTAAGGACCAGCCTAAACGCAAGGTAACCTTCACCTCTTTCCCATGGGATTTTCCCCAGCTGGGATATCTCTGCTTTCTCCTGGAACTAGGTCCTCCAGCTGGCAACATATCTCTCTCTCTCTCTCTCTCTCTCTCTCTCTCTCTCTCTCTGTGTGTGTGTGTGTGTGTTGGGGGAGAAGAGGAGACTGTTTTAGGTATTGCTCTGTCCTAGGGCTTCCCCGATACCTGCTGAATCCAATGCAAAGTGGCCTTTCCCCTGGCTCTGGAGACATTTCCGAGGCAGGCACCTGTCATCTGCCACCCCCGTCCTCCTCCTCGAGCTCCCTTTCTCCCCCTCCCCCAGCCCATTATTCTGCTTCAGCCTTTTGTGTCAGTGGCAGAGGGCTGAAGGGATGTCTTTGCCCTTCTGGCAGGCAGGACAGTGTCAGGATGGACCGCGCTGCCAGAAGCCGACGCTAGCGAGGGAGGTGTGAAGAGTTGGCCAG

Assays:
[1] = system: MSNs in the striatum (STR); test: Promoter activity driving EYFP reporter expression after AAV injection into the SNr: striatum; assay type: in vivo, mice; settings: for labeled MSNs, reporter expression driven by promoter (FIG. 4B): mean±SEM, n=3 mice, AAV8R12 capsid; for Activity Level STR: numbers of YFP-expressing neurons per animal
Source text: (§1) Brain profiles of two epigenetic marks for enhancers and promoters, monomethylation of histone H3 lysine 4 (H3K4me1) and acetylation of histone H3 lysine 27 (H3K27ac) were checked and approximately 2 kilobase-long sequences around the transcriptional start site (TSS) that have high levels of H3K4me1 and/or H3K27ac were identified in mouse brain. Homologous sequences at equivalent positions of the human genome were then cloned onto an AAV backbone, and the activity of the homologous sequences in directing reporter expression was tested in mice after injections of AAVs into the SNr (FIG. 3A-C, TABLE 3).
G88P2 (2259 bp) was cloned with the following primers: 5′-[…] (SEQ ID NO.: 36) and 3-[…] (SEQ ID NO.: 37). To increase the payload of AAV genome, the G88P2 promoter was shorted using restriction enzymes, and two derivatives, G88P3 and G88P7, were made which were 1395-bp and 896-bp long, respectively (FIG. 3A-3C). Comparative efficiency in labeling MSNs for the two shortened promoters was observed. For mice that received viral injections into the SNr, viruses expressing EYFP driven by G88P3 and G88P7 promoters labeled 3.7±0.66×104 and 3.95±0.73×104 MSNs per mouse, respectively, compared to 1.61±0.16×104 labeled MSNs by hSyn promoter (FIG. 4B).
(§2) Region-selective promoter identification was based on the Allen Brain Atlas in situ hybridization (ISH) data (mouse.brain-map.org/). Genes highly expressed in the striatum but not in other parts of the basal ganglia were first selected as candidates. H3K4me1 and H3K27ac are known epigenetic marks for active promoters and enhancers. Thus, we identified regions with high levels of these two chromatin modification marks in mouse brain as candidate regions based on the ENCODE annotation data on the UCSC Genome Browser (genome.ucsc.edu/). To further extend the promoters' potential application in primates, the sequences of interest were PCR-amplified from human genomic DNA. Based on the above strategies, GPR88 was selected as a candidate gene. The nucleotide sequence upstream of the start codon with high H3K4me1 and H3K27ac levels was selected as the candidate promoter sequence. G88P2 (2259 bp) was cloned with the following primers: 5′-[…]-3′ (SEQ ID NO: 36), 5′-[…]-3′ (SEQ ID NO: 58). G88P3 (1395 bp) and G88P7 (896 bp) were further shortened by subcloning.
Promoters were subcloned into a pAAV-hSyn-EYFP vector derived from pAAV-hSyn-EGFP (Addgene, 50465) to replace the hSyn promoter by using appropriate restriction enzyme combinations. To generate pAAV-G88P7-DIO-tdTomato, a DIO-tdTomato cassette was subcloned into pAAV-G88P7-EYFP to replace EYFP by restriction enzyme digestion. To generate pAAV-G88P3-HA-hM3Dq, promoter G88P3 was subcloned into pAAV-hSyn-HA-hM3Dq-IRES-mCitrine (Addgene, 50463) via the EcoRI/BamHI restriction sites to replace the hSyn promoter and IRES-mCitrine was removed afterwards by restriction enzyme digestion. To generate pAAV-G88P3-HA-hM3Dq-2A-EYFP, a 2A-EYFP fragment was subcloned into pAAV-G88P3-HA-hM3Dq after hM3Dq. […]
Images were acquired using a confocal microscope (Carl Zeiss, LSM880) and an Axiolmager.Z1 microscope with apotome (Carl Zeiss). […] Every sixth section was analyzed, and numbers of EYFP+ cells were multiplied by six to acquire the approximate total number and mean number of cells per animal. […]

[2] = system: substantia nigra (SN); test: Promoter activity driving EYFP reporter expression after AAV injection into the SNr: substantia nigra; assay type: in vivo, mice; settings: numbers of YFP-expressing neurons per animal
Source text: as §1
as §2, with “subcloning. […]” for “subcloning.”
Images were acquired using a confocal microscope (Carl Zeiss, LSM880) and an Axiolmager.Z1 microscope with apotome (Carl Zeiss). […] Every sixth section was analyzed, and numbers of EYFP+ cells were multiplied by six to acquire the approximate total number and mean number of cells per animal. Images were processed using ImageJ (NIH, USA), and final quantifications were independently performed manually by two blinded experimenters.

Row | Molecule | labeled MSNs, reporter expression driven by promoter (FIG. 4B) [1] | Activity Level STR [1] | Activity Level SN [2]
1 | B1 | 37026±6646 | ++++ (>25 k) | + (<5 k)
2 | B2 | 39460±7281 | ++++ (>25 k) | + (<5 k)

Reference: patent US20250382588A1, “CHIMERIC AAV AND USES THEREOF” (priority 2023, published 2025)
